The results in this text go back to patent CN116063501A (HUADAO SHANGHAI BIOMEDICAL CO LTD, dated 2023).

For the experiment, the target named is T1, CD4抗原 (UniProt P01730 26-458, limits assumed).
T1 construct: whole, on cells; also called 细胞表面的CD4抗原
The experiment can be described thus: flow cytometry on Nalm6-CD4 cells; antibody from 4 μg/mL in 4-fold steps, 10 concentrations; APC goat anti-mouse IgG secondary.

B1: 抗CD4-1抗体 (antibody, V domains shown)
VH: EVQLQQSGPELVKPGDSVKMSCKASGYTFTDYFMDWVKQSHGKSLEWIGYIYPNNGGTNNNQKFKGKATLTVDKSSSTAYMELHSLTSEDSAVYYCARRGYDEGFAYWGQGTLVTVSS
VL: DILLTQSPAILSVSPGERVSFSCRASQIIGTSILWYQQRTNGSPRLLIKYASESISGIPSRFSGSGSGTDFTLSINSVESEDIADYYCQQSNTWPFTFGGGTKLEMK
notes: Detected with a goat anti-mouse IgG secondary antibody; also called 抗CD4抗体; 抗CD4(CD4-1)抗体
What is called EC50 is the concentration that produces a half-maximal response. Read a high EC50 as weaker potency. B1: it took 0.101 µg/mL to reach a half-maximal effect (EC50).
